For two molecules, Kd results are on record in PMC7994203, “E3 ligase-inactivation rewires CBL interactome to elicit oncogenesis by hijacking RTK–CBL–CIN85 axis” (Oncogene, 2021).

Usually Kd stands for the equilibrium constant for the complex coming apart.

Changes are numbered by the printed parent chain. Non-standard residues stand in square brackets, D forms with d. No end group written: not given here. pY = N[C@@H](Cc1ccc(OP(=O)(O)O)cc1)C(=O)O

Targets include GST-CIN85-SH3B; GST-CIN85-SH3A; GST-CIN85-SH3C.
What all share (test): SPR; proteins immobilized via an N-terminal GST-tag, peptides as analyte; Biacore T200, steady-state affinity
The target of another assay is T1, GST-WT-CBL (47–435) (UniProt P22681 47-435).
T1 construct: CBL fragment, residues 47-435; also called WT-CBL fragment; source: recombinant, purified (preparation in the Supplemental Information); not shown: GST, N-terminal, kept
T1 sequence (looked up): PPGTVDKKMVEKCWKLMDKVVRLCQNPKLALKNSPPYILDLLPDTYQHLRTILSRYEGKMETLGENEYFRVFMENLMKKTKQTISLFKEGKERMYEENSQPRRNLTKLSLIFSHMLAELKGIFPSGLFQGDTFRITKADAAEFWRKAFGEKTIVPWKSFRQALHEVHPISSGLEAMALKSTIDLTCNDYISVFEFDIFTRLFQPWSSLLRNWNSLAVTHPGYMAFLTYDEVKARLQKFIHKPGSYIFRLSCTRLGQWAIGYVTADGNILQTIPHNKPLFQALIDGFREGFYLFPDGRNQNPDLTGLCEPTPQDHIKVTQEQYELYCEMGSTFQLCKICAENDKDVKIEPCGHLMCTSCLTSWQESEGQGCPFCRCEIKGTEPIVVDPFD
Particulars: both partners purified.

The target of the next assay is T2, GST-CBL-Y371S (47–435) (UniProt P22681 47-435, Y371S).
T2 construct: CBL fragment, residues 47-435, with the MDS/MPN mutation Y371S; also called CBL-Y371S fragment; source: recombinant, purified (preparation in the Supplemental Information); not shown: GST, N-terminal, kept
T2 sequence (looked up): T1 sequence (looked up) with Y325S
The following applies: both partners purified.

For a further assay, the target named is T3, GST-CIN85 full-length (UniProt Q96B97 1-665).
T3 construct: CIN85 full-length; also called CIN85 FL; source: recombinant, purified (preparation in the Supplemental Information); not shown: GST, N-terminal, kept
T3 sequence (Q96B97 whole entry): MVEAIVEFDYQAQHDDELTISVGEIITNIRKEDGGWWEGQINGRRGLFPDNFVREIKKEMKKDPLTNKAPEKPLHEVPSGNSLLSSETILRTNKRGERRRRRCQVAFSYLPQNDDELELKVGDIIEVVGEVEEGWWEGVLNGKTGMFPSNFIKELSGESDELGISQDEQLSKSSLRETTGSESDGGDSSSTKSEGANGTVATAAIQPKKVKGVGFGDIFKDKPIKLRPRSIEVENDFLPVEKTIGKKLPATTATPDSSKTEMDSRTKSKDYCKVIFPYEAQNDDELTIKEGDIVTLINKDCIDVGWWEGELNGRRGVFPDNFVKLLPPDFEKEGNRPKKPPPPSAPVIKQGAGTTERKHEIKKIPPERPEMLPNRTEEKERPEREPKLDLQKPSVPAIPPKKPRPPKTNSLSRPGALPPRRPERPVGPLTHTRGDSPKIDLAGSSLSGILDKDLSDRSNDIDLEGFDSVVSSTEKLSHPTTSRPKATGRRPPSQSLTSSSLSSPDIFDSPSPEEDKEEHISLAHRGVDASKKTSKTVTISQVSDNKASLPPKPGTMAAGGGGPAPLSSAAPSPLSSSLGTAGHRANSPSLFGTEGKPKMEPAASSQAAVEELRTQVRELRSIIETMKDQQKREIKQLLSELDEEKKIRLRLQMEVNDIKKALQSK
Particulars: both partners purified.

B1: tyrosine-phosphorylated EGFR peptide (peptide)
peptide: LQR[pY]SSDPTGA
notes: EGFR peptide with a phosphotyrosine; also called pY-EGFR peptide
Regarding B1, the Kd with GST-WT-CBL (47–435) worked out at 1.2 µM; with GST-CBL-Y371S (47–435) it was 0.6 µM.

As for PERPPKPFPRRIN (also called proline-rich peptide of CBL) [PepC1], the Kd in the assay with GST-CIN85 full-length came to 5.5 µM; with GST-CIN85-SH3B it was 2.3 µM; in the assay with GST-CIN85-SH3A it was 35.6 µM; with GST-CIN85-SH3C, 68 µM.
